Assays:
[1] = molecular target: SARS-CoV-2 spike protein on Ramos-S cells (SARS-CoV-2) (UniProt P0DTC2); assay: flow cytometry on cells
[2] = molecular target: hexahistidine tagged RBD WT (SARS CoV-2, isolate Wuhan-Hu-1, aa residues 319-541) (SARS-CoV-2) (UniProt P0DTC2); assay: peptide or protein array
EflACE2-Fc-WT (human) = EflACE2-Fc-WT (human) (UniProt Q9BYF1); assay: BLI

EflACE2-Fc-WT (from UniProt Q9BYF1 19-740) (Fc fusion)
median fluorescence intensity [1]: 19600 | IC50 [2]: 10 nM

SARS-CoV-2 spike RBD (analyte of the BLI) (from UniProt P0DTC2) (domain or fragment)
Kd (EflACE2-Fc-WT (human)): 0.7 nM

flACE2-Fc-WT (from UniProt Q9BYF1 19-740) (Fc fusion)
median fluorescence intensity [1]: 17200 | IC50 [2]: 80 nM

trACE2-Fc WT (from UniProt Q9BYF1 19-615) (Fc fusion)
median fluorescence intensity [1]: 15500 | IC50 [2]: 114 nM

trACE2-Fc-kif (from UniProt Q9BYF1 19-615) (Fc fusion)
median fluorescence intensity [1]: 16400

Source: article PMC9369017
